This note sets out measurements from patent US20220119477A1 (published 2022).

T1: WT1 peptide on HLA-A*02:01 (human)
T1 peptide: VLDFAPPGA

B1: TCR of Patient 2, alpha 2 and beta 2 (TCR, V domains shown)
Valpha: GENVEQHPSTLSVQEGDSAVIKCTYSDSASNYFPWYKQELGKRPQLIIDIRSNVGEKKDQRIAVTLNKTAKHFSLHITETQPEDSAVYFCAATSRDDMRFGAGTRLTVKP
Vbeta: DAMVIQNPRYQVTQFGKPVTLSCSQTLNHNVMYWYQQKSSQAPKLLFHYYDKDFNNEADTPDNFQSRRPNTSFCFLDIRSPGLGDAAMYLCATSWGLNEQYFGPGTRLTVT
B2: TCR of Patient 2, alpha 1 and beta 1 (TCR, V domains shown)
Valpha: AQSVTQLDSQVPVFEEAPVELRCNYSSSVSVYLFWYVQYPNQGLQLLLKYLSGSTLVESINGFEAEFNKSQTSFHLRKPSVHISDTAEYFCAVTLLSIEPSAGGYQKVTFGIGTKLQVIP
Vbeta: DTGVSQNPRHKITKRGQNVTFRCDPISEHNRLYWYRQTLGQGPEFLTYFQNEAQLEKSRLLSDRFSAERPKGSFSTLEIQRTEQGDSAMYLCASSLEGRAMPRDSHQETQYFGPGTRLLVL
B3: TCR of Patient 2, alpha 1 and beta 2 (TCR, V domains shown)
Valpha: AQSVTQLDSQVPVFEEAPVELRCNYSSSVSVYLFWYVQYPNQGLQLLLKYLSGSTLVESINGFEAEFNKSQTSFHLRKPSVHISDTAEYFCAVTLLSIEPSAGGYQKVTFGIGTKLQVIP
Vbeta: DAMVIQNPRYQVTQFGKPVTLSCSQTLNHNVMYWYQQKSSQAPKLLFHYYDKDFNNEADTPDNFQSRRPNTSFCFLDIRSPGLGDAAMYLCATSWGLNEQYFGPGTRLTVT
B4: TCR of Patient 2, alpha 2 and beta 1 (TCR, V domains shown)
Valpha: GENVEQHPSTLSVQEGDSAVIKCTYSDSASNYFPWYKQELGKRPQLIIDIRSNVGEKKDQRIAVTLNKTAKHFSLHITETQPEDSAVYFCAATSRDDMRFGAGTRLTVKP
Vbeta: DTGVSQNPRHKITKRGQNVTFRCDPISEHNRLYWYRQTLGQGPEFLTYFQNEAQLEKSRLLSDRFSAERPKGSFSTLEIQRTEQGDSAMYLCASSLEGRAMPRDSHQETQYFGPGTRLLVL
B5: TCR of Patient 1, alpha 1 and beta (growing colony) (TCR, V domains shown)
Valpha: AQSVAQPEDQVNVAEGNPLTVKCTYSVSGNPYLFWYVQYPNRGLQFLLKYITGDNLVKGSYGFEAEFNKSQTSFHLKKPSALVSDSALYFCAVRDGGATNKLIFGTGTLLAVQP
Vbeta: EAQVTQNPRYLITVTGKKLTVTCSQNMNHEYMSWYRQDPGLGLRQIYYSMNVEVTDKGDVPEGYKVSRKEKRNFPLILESPSPNQTSLYFCASSTLGGELFFGEGSRLTVL
B6: TCR of Patient 3, alpha 1 and beta (TCR, V domains shown)
Valpha: AQKVTQAQTEISVVEKEDVTLDCVYETRDTTYYLFWYKQPPSGELVFLIRRNSFDEQNEISGRYSWNFQKSTSSFNFTITASQVVDSAVYFCALPDKVIFGPGTSLSVIP
Vbeta: DSGVTQTPKHLITATGQRVTLRCSPRSGDLSVYWYQQSLDQGLQFLIQYYNGEERAKGNILERFSAQQFPDLHSELNLSSLELGDSALYFCASSVSAGSTGELFFGEGSRLTVL
B7: TCR of Patient 3, alpha 2 and beta (TCR, V domains shown)
Valpha: GQQLNQSPQSMFIQEGEDVSMNCTSSSIFNTWLWYKQEPGEGPVLLIALYKAGELTSNGRLTAQFGITRKDSFLNISASIPSDVGIYFCAGLYATNKLIFGTGTLLAVQP
Vbeta: DSGVTQTPKHLITATGQRVTLRCSPRSGDLSVYWYQQSLDQGLQFLIQYYNGEERAKGNILERFSAQQFPDLHSELNLSSLELGDSALYFCASSVSAGSTGELFFGEGSRLTVL

In this experiment the target is T1, WT1 peptide on HLA-A*02:01. The experiment in a line: multimer staining.
Take B1: the binding result is “recognises”.
For B2 the value was “recognises”; for B3, “recognises”; for B4, “recognises”.
Take B5: the binding result is “recognises”.
With B6 the entry was “recognises”; with B7, “recognises”.
